Measured values from the nanobody polyreactivity screen of Harvey et al. (2022).

Assay: yeast display, Sf9 membrane polyspecificity reagent, FACS + sequencing; frameworks hold sequencing errors
How it was run: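 Galactose-induced (36–48 hours) yeast carrying a synthetic nanobody display library were exposed to 10% biotinylated, detergent-solubilized Sf9 membrane reagent at 4 °C for 1 hour. FACS followed streptavidin microbead enrichment, using low and high (top ~1%) gates for expression (anti-HA) and reagent binding (streptavidin). Colony PCR, MiSeq 2 × 250 sequencing and CDR-length filtering followed. Labels for polyreactivity reflect the gate of origin.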

Sequence | polyreactivity (PSR sort gate)
QVQLVESGGGLVQAGGSLRLSCAASGRIFRGYAMGWYRQAPGKERELVAAISGSGGSTYYADSVKGRFTISRDNAKNTVYLQMMSLKPEDTAVYYCAADQQSTGDWAGDYWGQGTQVTVSS | low polyreactivity
QVQLVESGGGLVQAGGSLRLSCAASGRIFRGYAMGWYRQAPGKERELVARITSSGSTNYADSVKGRFTISRDNAKNTVYLQMNSLKPEDTAVYYCAADKYYWGTGVWMDYWGQGTQVTVSS | high polyreactivity
QVQLVESGGGLVQAGGSLRLSCAASGRIFRGYVMGWYRQAPGKERELVAITIGAGRTYYADSVKGRFTISRDNAKNTVYLQMISLKPEDTAVYYFAVRLYANSGRFDYWGQGTQVTVSS | low polyreactivity
QVQLVESGGGLVQAGGSLRLSCAASGRIFRHNPMGWYRQAPGKERELVAAITSRGGTYYADSVKGRFTISRDNAKNTVYFQMNSVKPEDTAVYYCAADRPIYPYPGKGFRYDYWGQGTQVTVSS | low polyreactivity
QVQLVESGGGLVQAGGSLRLSCAASGRIFRHNTMGWYRQAPGKERELVAGITASGGDTYYADSVKGRFTISRDNAKNTVYLDMNSLKPEDTAVYYCATSQYGYRSWPGLYYWGQGTQVTVSS | low polyreactivity
QVQLVESGGGLVQAGGSLRLSCAASGRIFRINAMGWYRQAPGKERELVASISRRGGNTYYADSVKGRFTISRDNAKNTVYLQMNSLKPEDTAVYYCAADTNQERTFYYWGQGTQVTVSS | low polyreactivity
QVQLVESGGGLVQAGGSLRLSCAASGRIFRINAMGWYRQAPGKERELVASITSRAGSTYYADSVKGRFTISRDNAKNTVYLQMTSLKPEDTAVYDCAARSVYTYYRLDYWGQGSQVTVSS | high polyreactivity
QVQLVESGGGLVQAGGSLRLSCAASGRIFRINTMGWNRQAPGKERELVAAIRTSGSSTYADSVKGRFTISRDNAKNTVYLQMNSLKPEDTAVYYCNTKYPGRGYYWGQGTQVTVSS | high polyreactivity
QVQLVESGGGLVQAGGSLRLSCAASGRIFRIYAMGWYIQAPGKERELVARITYSVGSTYYADSVKGRFTISRDNEKNSVFLQMNSLKPEDTSVYYCAADWLGYQYGYWGQGSQVTVSS | low polyreactivity
QVQLVESGGGLVQAGGSLRLSCAASGRIFRKYTMGWYRQAPGKERELVAAISARGGSTYYADSVKGRFTISRDNAKNTVYLQMNSLKPEDTAVYYCTTSPIGNITYRYDYWGQGTQVTVSS | high polyreactivity
QVQLVESGGGLVQAGGSLRLSCAASGRIFRLYALGWDRQAPGKERELVATITSGGTYYADSVKGRFTISRDNAKNTVYLQMNSLKPEDTAVYYCAAHSGSTYKYWGQGTQVTVSS | low polyreactivity
QVQLVESGGGLVQAGGSLRLSCAASGRIFRLYAMGWYRQAPGKEREFVATITWIGGRTYYADSVKGRFTISRDNAKNTVYLQMNSLKPEDTAVYYCAADPGYTYEYWGQGTQVTVSS | low polyreactivity
QVQLVESGGGLVQAGGSLRLSCAASGRIFRLYAMGWYRQAPGKERELVAAISKSGGSTYYADSVKGRFTISRDNAKYTVYLQMNSLNPEDTAVYYCAADYRTHGGYVGTFDYWGQGTQVTVSS | low polyreactivity
QVQLVESGGGLVQAGGSLRLSCAASGRIFRLYVMGWYRQAPGKERELVARIRIRDSNTYYADSVKGRFTISRDNAKHTVYLQMNSLKPEDTAVYYCAVVATYVYSKYDYWGQGTQVTVSS | low polyreactivity
QVQLVESGGGLVQAGGSLRLSCAASGRIFRNAMGWYRQAPGKERELVAAISSGGSTNYADSVKGRFTISRDNAKNTVYLQMNSLKPEDTAVYYCAADWDWWYQEFDYWGQGTQVTVSS | high polyreactivity
QVQLVESGGGLVQAGGSLRLSCAASGRIFRNNAMGWYRQAPGKERELVAAITWSGGSTYYADSVKGRFTISRDNAKNTVYLQMNSLKPEDTAVYYCNAGRGYKYSYTYDYWGQGTQVTVSS | low polyreactivity
QVQLVESGGGLVQAGGSLRLSCAASGRIFRNYAMGWYRQAPGKERELVAAISSGGGSTYYADSVKGRFTISRDNAKNTVYLQMNSLKPEDTAVYYCNARYVYYGKFREYDYWGQGTQVTVSS | high polyreactivity
